Patent US20170008928A1, “NOVEL PEPTIDES AND PEPTIDE DERIVATIVES AND USES THEREOF” (Novo Nordisk A/S, priority 2015, published 2017)
Starred links: 1 amine or outer side, 2 acyl side, 3 side chain; linkers in the order of their positions; H or OH if unused. Non-standard residues stand in square brackets, D forms with d. No end group written: not given here. *: point of attachment. Phe(4-CH2SO3H) = N[C@@H](Cc1ccc(CS(=O)(=O)O)cc1)C(=O)O; sY = N[C@@H](Cc1ccc(OS(=O)(=O)O)cc1)C(=O)O; C18 diacid = O=C(O)CCCCCCCCCCCCCCCCC(=O)*; d(βAsp) = O=C(O)[C@@H](CC(=O)[*:2])N[*:1]; C16 diacid = O=C(O)CCCCCCCCCCCCCCC(=O)*; γGlu = O=C(O)[C@H](CCC(=O)[*:2])N[*:1]; Met(O2) = CS(=O)(=O)CC[C@H](N)C(=O)O; NMeF = CN[C@@H](Cc1ccccc1)C(=O)O; dNMeD = CN[C@H](CC(=O)O)C(=O)O; Nle = CCCC[C@H](N)C(=O)O; AEEA = NCCOCCOCC(=O)O

T1: human cholecystokinin-2 receptor (human, UniProt P32239 1-447)
T1 sequence (looked up): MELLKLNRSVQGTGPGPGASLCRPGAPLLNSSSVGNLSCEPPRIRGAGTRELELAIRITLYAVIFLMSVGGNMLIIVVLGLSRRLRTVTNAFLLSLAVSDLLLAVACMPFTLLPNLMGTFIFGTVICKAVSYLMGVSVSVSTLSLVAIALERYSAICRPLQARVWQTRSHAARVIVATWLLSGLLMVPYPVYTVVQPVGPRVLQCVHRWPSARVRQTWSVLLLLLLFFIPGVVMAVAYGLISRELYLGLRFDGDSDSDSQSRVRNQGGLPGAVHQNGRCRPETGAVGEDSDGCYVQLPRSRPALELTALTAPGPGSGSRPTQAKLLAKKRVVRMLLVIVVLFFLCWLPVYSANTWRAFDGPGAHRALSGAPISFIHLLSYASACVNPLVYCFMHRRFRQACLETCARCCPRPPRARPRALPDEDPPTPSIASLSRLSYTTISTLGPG

T2: human cholecystokinin-1 receptor (human, UniProt P32238 1-428)
T2 sequence (looked up): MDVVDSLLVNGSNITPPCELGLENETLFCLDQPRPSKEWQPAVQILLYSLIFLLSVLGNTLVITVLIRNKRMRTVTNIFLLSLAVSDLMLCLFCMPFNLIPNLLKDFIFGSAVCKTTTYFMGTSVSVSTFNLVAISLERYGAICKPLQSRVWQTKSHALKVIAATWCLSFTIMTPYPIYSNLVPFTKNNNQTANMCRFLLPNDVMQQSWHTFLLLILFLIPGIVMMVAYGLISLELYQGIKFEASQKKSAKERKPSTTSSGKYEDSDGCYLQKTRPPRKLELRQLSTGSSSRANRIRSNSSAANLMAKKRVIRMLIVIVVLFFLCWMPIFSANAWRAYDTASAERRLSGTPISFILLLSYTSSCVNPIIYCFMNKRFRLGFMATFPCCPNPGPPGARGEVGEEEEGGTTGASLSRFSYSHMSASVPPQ

B1: Asp-sTyr-Phe-Gly-Trp-Nle-DMeAsp-MePhe-amide (peptide)
peptide: D[sY]FGW[Nle][dNMeD][NMeF]-NH2
modifications: N-terminus assumed
SMILES: CCCC[C@H](NC(=O)[C@H](Cc1c[nH]c2ccccc12)NC(=O)CNC(=O)[C@H](Cc1ccccc1)NC(=O)[C@H](Cc1ccc(OS(=O)(=O)O)cc1)NC(=O)[C@@H](N)CC(=O)O)C(=O)N(C)[C@H](CC(=O)O)C(=O)N(C)[C@@H](Cc1ccccc1)C(N)=O
notes: X = Nle or Nal
B2: 2-[2-[2-[[2-[2-[2-[[(4S)-4-Carboxy-4-(17-carboxyheptadecanoylamino)butanoyl]amino]ethoxy]ethoxy]acetyl]amino]ethoxy]ethoxy]acetyl-DbAsp-Phe(4-sulfomethyl)-Nle-G … (peptide)
peptide: {C18 diacid-γGlu-AEEA-AEEA}-[d(βAsp)][Phe(4-CH2SO3H)][Nle]GW[Nle][dNMeD][NMeF]-NH2
SMILES: CCCC[C@H](NC(=O)[C@H](Cc1ccc(CS(=O)(=O)O)cc1)NC(=O)C[C@@H](NC(=O)COCCOCCNC(=O)COCCOCCNC(=O)CC[C@H](NC(=O)CCCCCCCCCCCCCCCCC(=O)O)C(=O)O)C(=O)O)C(=O)NCC(=O)N[C@@H](Cc1c[nH]c2ccccc12)C(=O)N[C@@H](CCCC)C(=O)N(C)[C@H](CC(=O)O)C(=O)N(C)[C@@H](Cc1ccccc1)C(N)=O

Tests used:
[1] = molecular target: T1, human cholecystokinin-2 receptor; assay: cell-based or functional assay
[2] = molecular target: T1, human cholecystokinin-2 receptor; assay: SPA competition vs [125I]-CCK-8s, membranes
Procedure: CCK receptor binding assays were performed in 96-well Optiplates (Cat #6005290, PerkinElmer, Waltham, Mass., USA) in a total volume of 200 μl per well.
The plates were sealed and incubated in the dark at +22° C. for 2 hours on a IKA MTS plate shaker (IKA-Werke D-79219 Staufen) set at 300 rpm and thereafter centrifuged at 1500 rpm for 10 minutes in a Heraeus Multifuge 3s centrifuge. SPA bead light emission was measured in a TopCount NXT (PerkinElmer) for 2 min/well after a delay of 60 min.

[3] = molecular target: T2, human cholecystokinin-1 receptor; assay: cell-based or functional assay

Binder	EC50 (CCK-2R) [1] [nM]	IC50 [2] [nM]	EC50 (CCK-1R) [3] [pM]
{C16 diacid-γGlu-AEEA-AEEA}-E[sY]LGW[Nle][dNMeD][NMeF]-NH2 (X = Nle or Nal)	110	590	
{C18 diacid-γGlu-AEEA-AEEA}-[dE][sY]LGW[Nle][dNMeD][NMeF]-NH2 (X = Nle or Nal)	46	700	
{C18 diacid-γGlu-AEEA-AEEA}-D[sY]HGW[Nle][dNMeD][NMeF]-NH2 (X = Nle or Nal)	> 1000	9000	
B1	> 1000		220
{C18 diacid-γGlu-AEEA-AEEA}-D[sY]IGW[Nle][dNMeD][NMeF]-NH2 (X = Nle or Nal)	210	340	
{C18 diacid-γGlu-AEEA-AEEA}-E[sY]LGW[Nle][dNMeD][NMeF]-NH2 (X = Nle or Nal)	62	2400	
{C18 diacid-γGlu-AEEA-AEEA}-D[Phe(4-CH2SO3H)]LGW[Nle][dNMeD][NMeF]-NH2 (X = Nle or Nal)	81	380	
B2			430
D[sY]LGW[Met(O2)][dNMeD][NMeF]-NH2 [Asp-sTyr-Leu-Gly-Trp-Met(O2)-DMeAsp-MePhe-amide]	> 1000		370
